# Source: US20140348819A1, “Methods of Treating Cancer” (Dana-Farber Cancer Institute, Inc., priority 2011, published 2014)
# B1: Wnt1 (protein, UniProt P04628 28-370, looked up)
# Proto-oncogene Wnt-1: ANSSGRWWGIVNVASSTNLLTDSKSLQLVLEPSLQLLSRKQRRLIRQNPGILHSVSGGLQSAVRECKWQFRNRRWNCPTAPGPHLFGKIVNRGCRETAFIFAITSAGVTHSVARSCSEGSIESCTCDYRRRGPGGPDWHWGGCSDNIDFGRLFGREFVDSGEKGRDLRFLMNLHNNEAGRTTVFSEMRQECKCHGMSGSCTVRTCWMRLPTLRAVGDVLRDRFDGASRVLYGNRGSNRASRAELLRLEPEDPAHKPPSPHDLVYFEKSPNFCTYSGRLGTAGTAGRACNSSSPALDGCELLCCGRGHRTRTQRVTERCNCTFHWCCHVSCRNCTHTRVLHECL
# System: six V600E BRAF melanoma cell lines
# Test: Screening of recombinant RTK ligands for ability to confer resistance to BRAFi (PLX4720) or MEKi (PD184352) (Table 4)
# Format: cell-based, human
# Set-up: ability of recombinant RTK ligand to confer resistance / ability of recombinant RTK ligand to confer resistance (screening value): scale not given here
# Protocol: HGF is the only one that can substantially confer drug resistance to the cell lines.
# The complexity of the tumor microenvironment is much greater than an in vitro co-culture system. Therefore, the inventors explored whether the activation of other RTKs could result in a similar resistance as that observed with the activation of MET. To this end, six V600E BRAF melanoma cell lines were tested for their resistance to either BRAFi (PLX4720) or MEKi (PD184352) after the addition of 22 RTK ligands that have the potential of activating almost all known RTKs. […] The activation of a selected subset of these RTKs was confirmed by western blotting and by high throughput tyrosine kinase phosphorylation profiling.
molecule,measurement,setting,value
B1,ability of recombinant RTK ligand to confer resistance (screening value),"A2058, PD184352 - 1 uM, ligand 0.4 ng/ml",1.04
same,ability of recombinant RTK ligand to confer resistance (screening value),"A2058, PD184352 - 1 uM, ligand 1.6 ng/ml",0.99
same,ability of recombinant RTK ligand to confer resistance (screening value),"A2058, PD184352 - 1 uM, ligand 6.25 ng/ml",0.86
same,ability of recombinant RTK ligand to confer resistance (screening value),"A2058, PD184352 - 1 uM, ligand 25 ng/ml",0.98
same,ability of recombinant RTK ligand to confer resistance (screening value),"A2058, PD184352 - 1 uM, ligand 100 ng/ml",1.04
same,ability of recombinant RTK ligand to confer resistance (screening value),"A2058, PLX4720 - 2 uM, ligand 0.4 ng/ml",1.04
same,ability of recombinant RTK ligand to confer resistance (screening value),"A2058, PLX4720 - 2 uM, ligand 1.6 ng/ml",1.00
same,ability of recombinant RTK ligand to confer resistance (screening value),"A2058, PLX4720 - 2 uM, ligand 6.25 ng/ml",1.01
same,ability of recombinant RTK ligand to confer resistance (screening value),"A2058, PLX4720 - 2 uM, ligand 25 ng/ml",0.98
same,ability of recombinant RTK ligand to confer resistance (screening value),"A2058, PLX4720 - 2 uM, ligand 100 ng/ml",1.07
same,ability of recombinant RTK ligand to confer resistance (screening value),"C32, PD184352 - 1 uM, ligand 0.4 ng/ml",1.06
same,ability of recombinant RTK ligand to confer resistance (screening value),"C32, PD184352 - 1 uM, ligand 1.6 ng/ml",0.96
same,ability of recombinant RTK ligand to confer resistance (screening value),"C32, PD184352 - 1 uM, ligand 6.25 ng/ml",1.11
same,ability of recombinant RTK ligand to confer resistance (screening value),"C32, PD184352 - 1 uM, ligand 25 ng/ml",1.02
same,ability of recombinant RTK ligand to confer resistance (screening value),"C32, PD184352 - 1 uM, ligand 100 ng/ml",1.05
same,ability of recombinant RTK ligand to confer resistance (screening value),"C32, PLX4720 - 2 uM, ligand 0.4 ng/ml",1.13
same,ability of recombinant RTK ligand to confer resistance (screening value),"C32, PLX4720 - 2 uM, ligand 1.6 ng/ml",1.00
same,ability of recombinant RTK ligand to confer resistance (screening value),"C32, PLX4720 - 2 uM, ligand 6.25 ng/ml",1.03
same,ability of recombinant RTK ligand to confer resistance (screening value),"C32, PLX4720 - 2 uM, ligand 25 ng/ml",1.01
same,ability of recombinant RTK ligand to confer resistance (screening value),"C32, PLX4720 - 2 uM, ligand 100 ng/ml",0.95
same,ability of recombinant RTK ligand to confer resistance (screening value),"Colo 829, PD184352 - 1 uM, ligand 0.4 ng/ml",0.94
same,ability of recombinant RTK ligand to confer resistance (screening value),"Colo 829, PD184352 - 1 uM, ligand 1.6 ng/ml",0.93
same,ability of recombinant RTK ligand to confer resistance (screening value),"Colo 829, PD184352 - 1 uM, ligand 6.25 ng/ml",0.91
same,ability of recombinant RTK ligand to confer resistance (screening value),"Colo 829, PD184352 - 1 uM, ligand 25 ng/ml",0.85
same,ability of recombinant RTK ligand to confer resistance (screening value),"Colo 829, PD184352 - 1 uM, ligand 100 ng/ml",0.89
same,ability of recombinant RTK ligand to confer resistance (screening value),"Colo 829, PLX4720 - 2 uM, ligand 0.4 ng/ml",0.94
same,ability of recombinant RTK ligand to confer resistance (screening value),"Colo 829, PLX4720 - 2 uM, ligand 1.6 ng/ml",0.92
same,ability of recombinant RTK ligand to confer resistance (screening value),"Colo 829, PLX4720 - 2 uM, ligand 6.25 ng/ml",0.93
same,ability of recombinant RTK ligand to confer resistance (screening value),"Colo 829, PLX4720 - 2 uM, ligand 25 ng/ml",0.06
same,ability of recombinant RTK ligand to confer resistance (screening value),"Colo 829, PLX4720 - 2 uM, ligand 100 ng/ml",0.93
same,ability of recombinant RTK ligand to confer resistance (screening value),"G-361, PD184352 - 1 uM, ligand 0.4 ng/ml",0.99
same,ability of recombinant RTK ligand to confer resistance (screening value),"G-361, PD184352 - 1 uM, ligand 1.6 ng/ml",1.00
same,ability of recombinant RTK ligand to confer resistance (screening value),"G-361, PD184352 - 1 uM, ligand 6.25 ng/ml",0.93
same,ability of recombinant RTK ligand to confer resistance (screening value),"G-361, PD184352 - 1 uM, ligand 25 ng/ml",0.96
same,ability of recombinant RTK ligand to confer resistance (screening value),"G-361, PD184352 - 1 uM, ligand 100 ng/ml",0.93
same,ability of recombinant RTK ligand to confer resistance (screening value),"G-361, PLX4720 - 2 uM, ligand 0.4 ng/ml",0.94
same,ability of recombinant RTK ligand to confer resistance (screening value),"G-361, PLX4720 - 2 uM, ligand 1.6 ng/ml",0.97
same,ability of recombinant RTK ligand to confer resistance (screening value),"G-361, PLX4720 - 2 uM, ligand 6.25 ng/ml",1.01
same,ability of recombinant RTK ligand to confer resistance (screening value),"G-361, PLX4720 - 2 uM, ligand 25 ng/ml",0.97
same,ability of recombinant RTK ligand to confer resistance (screening value),"G-361, PLX4720 - 2 uM, ligand 100 ng/ml",0.98
same,ability of recombinant RTK ligand to confer resistance (screening value),"SK-MEL-5, PD184352 - 1 uM, ligand 0.4 ng/ml",0.02
same,ability of recombinant RTK ligand to confer resistance (screening value),"SK-MEL-5, PD184352 - 1 uM, ligand 1.6 ng/ml",0.91
same,ability of recombinant RTK ligand to confer resistance (screening value),"SK-MEL-5, PD184352 - 1 uM, ligand 6.25 ng/ml",1.06
same,ability of recombinant RTK ligand to confer resistance (screening value),"SK-MEL-5, PD184352 - 1 uM, ligand 25 ng/ml",1.02
same,ability of recombinant RTK ligand to confer resistance (screening value),"SK-MEL-5, PD184352 - 1 uM, ligand 100 ng/ml",1.14
same,ability of recombinant RTK ligand to confer resistance (screening value),"SK-MEL-5, PLX4720 - 2 uM, ligand 0.4 ng/ml",0.93
same,ability of recombinant RTK ligand to confer resistance (screening value),"SK-MEL-5, PLX4720 - 2 uM, ligand 1.6 ng/ml",0.90
same,ability of recombinant RTK ligand to confer resistance (screening value),"SK-MEL-5, PLX4720 - 2 uM, ligand 6.25 ng/ml",1.01
same,ability of recombinant RTK ligand to confer resistance (screening value),"SK-MEL-5, PLX4720 - 2 uM, ligand 25 ng/ml",0.97
same,ability of recombinant RTK ligand to confer resistance (screening value),"SK-MEL-5, PLX4720 - 2 uM, ligand 100 ng/ml",1.01
same,ability of recombinant RTK ligand to confer resistance (screening value),"SK-MEL-28, PD184352 - 1 uM, ligand 0.4 ng/ml",0.99
same,ability of recombinant RTK ligand to confer resistance (screening value),"SK-MEL-28, PD184352 - 1 uM, ligand 1.6 ng/ml",1.18
same,ability of recombinant RTK ligand to confer resistance (screening value),"SK-MEL-28, PD184352 - 1 uM, ligand 6.25 ng/ml",0.95
same,ability of recombinant RTK ligand to confer resistance (screening value),"SK-MEL-28, PD184352 - 1 uM, ligand 25 ng/ml",1.18
same,ability of recombinant RTK ligand to confer resistance (screening value),"SK-MEL-28, PD184352 - 1 uM, ligand 100 ng/ml",1.20
same,ability of recombinant RTK ligand to confer resistance (screening value),"SK-MEL-28, PLX4720 - 2 uM, ligand 0.4 ng/ml",1.02
same,ability of recombinant RTK ligand to confer resistance (screening value),"SK-MEL-28, PLX4720 - 2 uM, ligand 1.6 ng/ml",1.25
same,ability of recombinant RTK ligand to confer resistance (screening value),"SK-MEL-28, PLX4720 - 2 uM, ligand 6.25 ng/ml",0.99
same,ability of recombinant RTK ligand to confer resistance (screening value),"SK-MEL-28, PLX4720 - 2 uM, ligand 25 ng/ml",1.15
same,ability of recombinant RTK ligand to confer resistance (screening value),"SK-MEL-28, PLX4720 - 2 uM, ligand 100 ng/ml",1.25
